Measured values as given in PMC7072329 (Biomolecules, 2020).
Where no end group is shown, it is not given here. [ ]: non-standard residue; d: D form. The star is where a group is joined. Kyn = Nc1ccccc1C(=O)C[C@H](N)C(=O)O; NMeF = CN[C@@H](Cc1ccccc1)C(=O)O; NHCH2CH2OH = OCCN*

Tests used:
[1] = biological target: T1, μ-opioid receptor (rat (endogenous in rat brain), UniProt P33535 1-398); assay: radioligand binding; displacement of [^3H]DAMGO from rat brain membrane homogenate by unlabelled ligand (10^-10 to 10^-5 M); 50 mM Tris-HCl pH 7.4, 35 °C, 45 min; non-specific binding with 10 μM naloxone; IC50 converted into Ki by Cheng-Prusoff, one site competition fit; details: one partner purified
T1 construct: μ-opioid receptor, rat (Wistar), endogenous in brain membrane homogenate; defined by displacement of [^3H]DAMGO; In membranes, not on intact cells; also called MOR; µ-opioid receptor; source: endogenous, rat brain membrane homogenate

[2] = biological target: T2, κ-opioid receptor (guinea pig (endogenous in guinea pig …, UniProt P41144 1-380)); assay: radioligand binding; displacement of [^3H]HS665 from guinea pig brain membrane homogenate by unlabelled ligand (10^-10 to 10^-5 M); 50 mM Tris-HCl pH 7.4, 25 °C, 30 min; non-specific binding with 10 μM HS665; IC50 converted into Ki by Cheng-Prusoff; details: one partner purified
T2 construct: κ-opioid receptor, guinea pig, endogenous in brain membrane homogenate; defined by displacement of [^3H]HS665; In membranes, not on intact cells; also called KOR; k-opioid receptor; source: endogenous, guinea pig brain membrane homogenate

[3] = biological target: T3, δ-opioid receptor (rat (endogenous in rat brain), UniProt P33533 1-372); assay: radioligand binding; details: one partner purified
T3 construct: δ-opioid receptor, rat (Wistar), endogenous in brain membrane homogenate; defined by displacement of [^3H]Ile^5,6Delt II; In membranes, not on intact cells; also called DOR; source: endogenous, rat brain membrane homogenate

[4] = biological target: T1, μ-opioid receptor; assay: cell-based or functional assay
[5] = biological target: T1, μ-opioid receptor; assay: cell-based or functional assay; remark: listed apart in the source

T2 sequence (P41144 whole entry): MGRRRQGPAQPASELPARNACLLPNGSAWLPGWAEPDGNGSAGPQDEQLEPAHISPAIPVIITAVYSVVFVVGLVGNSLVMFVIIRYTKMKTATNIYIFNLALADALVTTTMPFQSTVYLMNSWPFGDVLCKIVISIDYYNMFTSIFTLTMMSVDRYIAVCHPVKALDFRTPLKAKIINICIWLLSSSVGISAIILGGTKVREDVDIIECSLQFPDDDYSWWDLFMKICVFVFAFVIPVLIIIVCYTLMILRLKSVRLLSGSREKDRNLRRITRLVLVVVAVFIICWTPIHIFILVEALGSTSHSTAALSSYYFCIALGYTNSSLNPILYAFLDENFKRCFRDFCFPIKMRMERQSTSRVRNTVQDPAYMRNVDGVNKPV
T3 sequence (P33533 whole entry, stated change not applied): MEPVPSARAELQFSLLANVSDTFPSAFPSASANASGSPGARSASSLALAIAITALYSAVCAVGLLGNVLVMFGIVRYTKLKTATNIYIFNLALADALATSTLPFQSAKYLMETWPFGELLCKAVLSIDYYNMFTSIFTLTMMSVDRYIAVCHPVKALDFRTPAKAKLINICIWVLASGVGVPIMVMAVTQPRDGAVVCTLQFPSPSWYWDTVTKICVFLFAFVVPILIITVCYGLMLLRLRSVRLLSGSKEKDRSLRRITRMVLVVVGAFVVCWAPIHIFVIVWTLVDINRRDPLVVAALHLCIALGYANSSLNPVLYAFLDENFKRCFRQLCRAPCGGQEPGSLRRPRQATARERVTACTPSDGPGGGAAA
T1 sequence (P33535 whole entry): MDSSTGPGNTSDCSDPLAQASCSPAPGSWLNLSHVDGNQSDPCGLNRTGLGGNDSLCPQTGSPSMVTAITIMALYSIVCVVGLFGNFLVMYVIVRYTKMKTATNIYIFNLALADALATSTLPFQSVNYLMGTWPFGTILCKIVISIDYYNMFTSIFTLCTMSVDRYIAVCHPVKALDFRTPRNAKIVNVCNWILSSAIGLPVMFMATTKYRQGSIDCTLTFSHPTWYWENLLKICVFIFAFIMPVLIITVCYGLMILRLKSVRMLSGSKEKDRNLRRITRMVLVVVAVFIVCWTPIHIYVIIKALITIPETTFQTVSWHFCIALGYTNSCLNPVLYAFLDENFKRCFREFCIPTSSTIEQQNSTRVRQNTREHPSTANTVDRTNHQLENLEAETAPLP

Binder	Ki [1] [nM]	Ki [2] [nM]	Ki [3] [nM]	logEC50 of [^35S]GTPγS binding as told in the conclusions (differs from Table 2) [4]	Log EC50 of [^35S]GTPγS binding (G-protein activation), rat brain membrane homogenates [5]
YP[Kyn]F-NH2 [Peptide K2]	1.39	–	–	–	–
YPF[Kyn]-NH2 (N-terminus assumed; SMILES NC(=O)[C@H](CC(=O)c1ccccc1N)NC(=O)[C@H](Cc1ccccc1)NC(=O)[C@@H]1CCCN1C(=O)[C@@H](N)Cc1ccc(O)cc1) [Peptide K3]	197	> 10000	159	–	–
Y[dA]GF[Kyn]-OH [Peptide K5]	9.11	> 10000	94.4	–	–
Y[dA]G[NMeF][NHCH2CH2OH]-{kynurenic acid (ester on OH)} (the order of couplings in Scheme 1 (ethanolamine-kyna ester, Boc-N-Me-Phe, Boc-Gly, Boc-DAla, Boc-Tyr) agrees; the drawn structure is in Scheme 1; also called kyna-containing peptide; source: synthetic peptide (solution phase synthesis, RP-HPLC purified, TFA salt)) [Peptide KA1]	–	> 10000	555	–	–
Y[dA]GF[Kyn]-OMe [Peptide K4]	2.29	> 10000	31.2	–	–
Y[dA]GF[Kyn]-NH2 [Peptide K6]	1.84	128	32.5	-5.6	-5.98
